Laboratory results reported in patent US20200123264A1 (Regeneron, published 2020).

T1: recombinant human LEPR extracellular domain expressed with a C-terminal mouse IgG2a Fc tag (human)
T1 construct: Dimeric construct; also called hLEPR.mFc; hLEPR-mFc
T1 chain: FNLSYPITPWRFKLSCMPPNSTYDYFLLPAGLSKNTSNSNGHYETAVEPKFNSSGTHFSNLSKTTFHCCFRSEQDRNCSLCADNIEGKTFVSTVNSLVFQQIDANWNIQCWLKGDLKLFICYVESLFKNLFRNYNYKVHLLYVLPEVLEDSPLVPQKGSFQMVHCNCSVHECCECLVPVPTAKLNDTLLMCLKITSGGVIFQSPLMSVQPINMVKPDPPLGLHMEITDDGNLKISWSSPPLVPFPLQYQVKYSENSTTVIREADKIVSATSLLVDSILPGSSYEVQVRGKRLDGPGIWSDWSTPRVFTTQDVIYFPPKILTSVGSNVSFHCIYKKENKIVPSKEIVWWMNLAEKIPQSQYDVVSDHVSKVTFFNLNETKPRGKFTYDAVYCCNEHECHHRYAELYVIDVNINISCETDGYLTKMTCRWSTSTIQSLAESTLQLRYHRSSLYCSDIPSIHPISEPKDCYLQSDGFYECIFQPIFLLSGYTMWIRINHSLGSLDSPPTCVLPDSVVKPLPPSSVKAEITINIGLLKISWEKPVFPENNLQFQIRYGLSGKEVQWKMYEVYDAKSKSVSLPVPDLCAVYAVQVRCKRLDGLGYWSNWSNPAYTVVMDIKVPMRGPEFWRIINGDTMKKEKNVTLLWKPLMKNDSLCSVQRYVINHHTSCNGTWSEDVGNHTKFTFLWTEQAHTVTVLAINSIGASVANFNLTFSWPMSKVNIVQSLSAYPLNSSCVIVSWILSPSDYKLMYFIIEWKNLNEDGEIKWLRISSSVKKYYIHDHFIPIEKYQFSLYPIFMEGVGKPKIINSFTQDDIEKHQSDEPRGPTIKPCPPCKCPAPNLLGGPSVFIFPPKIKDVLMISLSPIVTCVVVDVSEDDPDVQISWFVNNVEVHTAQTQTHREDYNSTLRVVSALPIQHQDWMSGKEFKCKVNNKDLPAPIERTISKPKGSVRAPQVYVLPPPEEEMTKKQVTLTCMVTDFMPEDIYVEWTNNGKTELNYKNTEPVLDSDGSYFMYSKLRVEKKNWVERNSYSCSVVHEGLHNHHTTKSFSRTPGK


Legend:
[1] = target: T2, recombinant mouse LEPR extracellular domain expressed with a C-terminal myc-myc-hexahistidine tag (mouse, UniProt P48356 22-839); test: SPR, mAb captured, 25 C
T2 construct: Monomeric construct; also called mLEPR.MMH; mLEPR-MMH
T2 sequence (P48356 other isoform, or with tags, fused parts or gaps): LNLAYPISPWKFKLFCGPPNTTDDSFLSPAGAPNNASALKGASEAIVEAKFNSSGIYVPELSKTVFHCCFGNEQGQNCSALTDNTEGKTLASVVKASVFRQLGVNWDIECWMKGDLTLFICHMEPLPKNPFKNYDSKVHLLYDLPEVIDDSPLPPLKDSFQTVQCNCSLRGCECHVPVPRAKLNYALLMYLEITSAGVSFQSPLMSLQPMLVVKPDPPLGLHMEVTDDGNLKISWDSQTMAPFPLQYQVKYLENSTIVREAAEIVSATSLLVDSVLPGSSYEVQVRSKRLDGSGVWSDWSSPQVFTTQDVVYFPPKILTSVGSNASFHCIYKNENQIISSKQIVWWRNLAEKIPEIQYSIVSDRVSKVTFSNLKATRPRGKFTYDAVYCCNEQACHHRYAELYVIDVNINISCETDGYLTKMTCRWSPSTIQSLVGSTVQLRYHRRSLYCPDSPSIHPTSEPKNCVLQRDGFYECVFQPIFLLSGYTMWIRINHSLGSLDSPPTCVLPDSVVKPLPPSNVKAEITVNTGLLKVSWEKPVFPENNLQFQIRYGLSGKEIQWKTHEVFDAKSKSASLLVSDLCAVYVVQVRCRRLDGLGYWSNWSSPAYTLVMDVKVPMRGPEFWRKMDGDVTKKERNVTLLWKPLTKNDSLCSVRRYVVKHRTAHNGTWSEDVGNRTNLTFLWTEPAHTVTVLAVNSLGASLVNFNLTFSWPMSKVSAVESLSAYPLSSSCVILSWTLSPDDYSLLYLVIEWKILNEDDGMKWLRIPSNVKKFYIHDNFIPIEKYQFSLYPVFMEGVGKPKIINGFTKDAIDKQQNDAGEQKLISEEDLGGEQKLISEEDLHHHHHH
Method: (§1) Equilibrium dissociation constants (KD values) for antigen binding to purified anti-LEPR monoclonal antibodies of the invention were determined using a real-time surface plasmon resonance biosensor using a Biacore 4000 instrument. All binding studies were performed in running buffer containing 10 mM HEPES, 150 mM NaCl, 3 mM EDTA, and 0.05% v/v Surfactant Tween-20, pH 7.4 (HBS-ET running buffer) at 25° C. and 37° C. The Biacore sensor surface was first derivatized by amine coupling with a monoclonal mouse anti-human Fc antibody (GE, # BR-1008-39) to the capture anti-LEPR monoclonal antibodies. The LEPR reagents tested for binding to the anti-LEPR monoclonal antibodies included recombinant human LEPR extracellular domain expressed with a C-terminal myc-myc-hexahistidine tag (hLEPR.MMH; SEQ ID NO:90), recombinant cynomolgus monkey LEPR extracellular domain expressed with a C-terminal myc-myc-hexahistidine tag (mfLEPR.MMH; SEQ ID NO:93), recombinant mouse LEPR extracellular domain expressed with a C-terminal myc-myc-hexahistidine tag (mLEPR.MMH; SEQ ID NO:94), recombinant rat LEPR extracellular domain expressed with a C-terminal myc-myc-hexahistidine tag (rLEPR.MMH; SEQ ID NO:95), and recombinant human LEPR extracellular domain expressed with a C-terminal mouse IgG2a Fc tag (hLEPR.mFc; SEQ ID NO:91). LEPR constructs that include MMH tags are monomeric LEPR constructs, and LEPR constructs including an mFc tag are dimeric LEPR constructs. […] The dissociation of monoclonal antibody bound LEPR reagent was monitored for 10 minutes in HBS-ET running buffer. Kinetic association (10 and dissociation (10 rate constants were determined by fitting the real-time binding sensorgrams to a 1:1 binding model with mass transport limitation using Scrubber 2.0c curve-fitting software. Binding dissociation equilibrium constants (KD) and dissociative half-lives (t½) were calculated from the kinetic rate constants as: […]

[2] = target: T3, recombinant human LEPR extracellular domain expressed with a C-terminal myc-myc-hexahistidine tag (human, UniProt P48357 22-839); test: SPR, mAb captured, 37 C
T3 construct: Monomeric construct; also called hLEPR.MMH; hLEPR-MMH
Method: as §1

[3] = target: T4, recombinant cynomolgus monkey LEPR extracellular domain expressed with a C-terminal myc-myc-hexahistidine tag (cynomolgus monkey, UniProt Q9MYL0 22-837 (rhesus entry)); test: SPR, mAb captured, 37 C
T4 construct: Monomeric construct; also called mfLEPR.MMH; mfLEPR-MMH
Method: as §1

[4] = target: T1, recombinant human LEPR extracellular …; test: SPR, mAb captured, 37 C
Method: as §1

[5] = target: T2, recombinant mouse LEPR extracellular …; test: SPR, mAb captured, 37 C
Method: as §1

[6] = target: T5, recombinant rat LEPR extracellular domain expressed with a C-terminal myc-myc-hexahistidine tag (rat, UniProt Q62959 22-839); test: SPR, mAb captured, 37 C
T5 construct: Monomeric construct; also called rLEPR.MMH; rLEPR-MMH
T5 sequence (Q62959 other isoform, or with tags, fused parts or gaps): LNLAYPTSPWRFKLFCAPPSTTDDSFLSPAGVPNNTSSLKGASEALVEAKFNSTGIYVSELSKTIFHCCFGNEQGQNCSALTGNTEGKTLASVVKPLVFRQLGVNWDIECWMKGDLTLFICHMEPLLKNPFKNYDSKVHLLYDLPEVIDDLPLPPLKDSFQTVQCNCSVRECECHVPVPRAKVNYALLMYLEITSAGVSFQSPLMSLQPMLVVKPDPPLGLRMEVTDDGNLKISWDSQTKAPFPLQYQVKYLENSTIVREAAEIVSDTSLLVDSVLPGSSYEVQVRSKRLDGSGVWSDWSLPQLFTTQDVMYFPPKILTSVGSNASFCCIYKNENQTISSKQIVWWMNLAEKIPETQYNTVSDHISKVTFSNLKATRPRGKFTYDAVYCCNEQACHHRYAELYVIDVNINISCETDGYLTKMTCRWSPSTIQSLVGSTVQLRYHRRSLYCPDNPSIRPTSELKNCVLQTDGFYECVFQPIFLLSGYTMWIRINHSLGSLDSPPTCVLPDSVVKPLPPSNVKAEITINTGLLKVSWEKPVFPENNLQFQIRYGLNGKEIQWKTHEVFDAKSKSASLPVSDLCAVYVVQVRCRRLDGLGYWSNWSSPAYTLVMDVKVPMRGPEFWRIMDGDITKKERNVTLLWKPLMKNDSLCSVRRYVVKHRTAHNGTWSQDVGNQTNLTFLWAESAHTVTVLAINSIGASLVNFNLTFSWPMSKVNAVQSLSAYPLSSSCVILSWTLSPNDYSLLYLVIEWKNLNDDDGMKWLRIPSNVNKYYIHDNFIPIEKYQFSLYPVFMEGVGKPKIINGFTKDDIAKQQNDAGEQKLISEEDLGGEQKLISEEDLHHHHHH
Method: as §1

[7] = target: T6, extracellular domain portion of LEPR protein expressed with a C-terminal human Fc tag (human); test: competition ELISA, 500 nM Ab, 10 nM hLEPR-hFc binding to coated hLeptin
T6 construct: Dimeric construct; also called hLEPR.hFc; hLEPR-hFc
Method: These antibody-protein or protein-protein complexes were then incubated for 1.5 hour at room temperature (RT). […] Samples were developed with a TMB solution (BD Biosciences, #555214; substrate A and B mixed at 1:1 ratio as per manufacturer's instructions) to produce a colorimetric reaction and then neutralized with 1M sulfuric acid before measuring absorbance at 450 nm on a Victor X5 plate reader. Data analysis was performed using a sigmoidal dose-response model within Prism™ software (Graph Pad).

100 nM mLEPR-MMH Bound (RU) [1] [RU]	100 nM hLEPR-MMH Bound (RU) [2] [RU]	Kd [2] [nM]	koff [2] [s⁻¹]	kon [2] [M⁻¹ s⁻¹]	t½ [2] [min]	100 nM mfLEPR-MMH Bound (RU) [3] [RU]	Kd [3] [nM]	koff [3] [s⁻¹]	kon [3] [M⁻¹ s⁻¹]	t½ [3] [min]	100 nM hLEPR-mFc Bound (RU) [4] [RU]	Kd [4] [nM]	koff [4] [s⁻¹]	kon [4] [M⁻¹ s⁻¹]	t½ [4] [min]	100 nM mLEPR-MMH Bound (RU) [5] [RU]	100 nM rLEPR-MMH Bound (RU) [6] [RU]	% blockade [7] [%]	Binder	other results
-2	19	202	0.00469	23200	2.5	14	169	0.00792	46900	1.5	67	15.1	0.000923	60900	13	-1	0	-1	H4H18439P2 (antibody, human IgG4, V domains shown, H4H prefix: human IgG4 Fc) VH: QLQLQESGPGLVKPSETLSLTCIVSGGDITSSSYYWNWIRQPPGKGLEWIGNIYYSGSTNYNPSLKSRVTISIDTSKSQFSLKLRSVTAADTAVYYCARLLRYFDWSKGYLDYWGQGTLVTVSS VL: not shown	–
1	26	148	0.00674	45500	1.7	27	164	0.0138	84300	0.8	52	8.86	0.00052	58700	22	3	6	2	H4H18466P2 (antibody, human IgG4, V domains shown, H4H prefix: human IgG4 Fc) VH: EVQLVESGGGLVQPGGSLRLSCTASGFTFSSYGLHWVRQAPGKGLEYVSSINHNGGSKYYADSVKGRFTISRDNSKNTLFLQMGSLKTEDMAVYYCARDLFLEWLFHGFDIWGQGTMVTVSS VL: not shown	binding result [1]: no binding (tested: 100 nM); Kd [6]: 771 nM; koff [6]: 0.0252 s⁻¹; kon [6]: 32600 M⁻¹ s⁻¹; t½ [6]: 0.5 min
